Source: the supplement of paper PMC9170038

Assays:
[1] = test system: MS2 coat protein; experiment: apparent KD of MS2 coat protein; designed switch direction (-1 OFF switch, 1 ON switch): 1; higher = weaker reporter binding
Outline: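 On Illumina chips, designed RNA switches with common flanks were made by stalled E. coli RNA polymerase. Titrations with SNAP-549-labelled MS2 coat protein, doubling from 0.7 or 1.5 nM to 3 µM, were done with no input, with 200 uM small-molecule ligand, or with an oligonucleotide input. Apparent KD is the median per design over clusters, from curve fits of normalised cluster fluorescence.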

[2] = test system: MS2 coat protein; experiment: apparent KD of MS2 coat protein; higher = weaker reporter binding; details: Eterna round: R107
Outline: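 Normalised binding curves from single clusters were fitted, and the median fit for each design is given as apparent KD. The clusters held designed RNA switches transcribed on-chip from Illumina sequencing clusters. These were titrated with SNAP-549-labelled MS2 coat protein (twofold steps from 0.7 or 1.5 nM to 3 µM, 0.8–1.5 h to 10–20 min per step) in 100 mM Tris-HCl pH 7.5, 80 mM KCl, 4 mM MgCl2, without or with constant ligand.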

[3] = input ligand: microRNA oligo, concentration not stated
[4] = Eterna round: R95, input ligand: FMN 200 uM
[5] = Eterna round: R95, input ligand: microRNA oligo, concentration not stated
[6] = Eterna round: R95, input ligand: none
[7] = input ligand: theophylline 20 uM
[8] = input ligand: tryptophan 2.4 mM

## CCGUAAUAUGGAGGAUAUGGAGCCUUAUUGGCUCCAGAAGGUCAAAACACAUGAGGAUCACCCAUGUCGGCGGUCAAUAGACCG [Eli NG1ss - 75] (Eterna round: R96, puzzle: Same State NG 1)
[1]; input ligand: FMN 200 uM
  apparent KD of MS2 coat protein: 31.4 nM
[1]; [3]
  apparent KD of MS2 coat protein: 42.9 nM
[1]; input ligand: none
  apparent KD of MS2 coat protein: 45.3 nM

## UAAAUACAUGAGGAUCACCCAUGUCAAAAGACAUGAGGAUAUGUACAGACUUCGGUCUGUACAGAAGGCAUGAAUA [salish99_ss1_r3_096] (Eterna round: R96, puzzle: Same State 1)
[1]; [3]
  apparent KD of MS2 coat protein: 417 nM

## UAUGAAUAGCAAGGAUAUUGAUAACAUGAGGAUCACCCAUGUAAUUGAUUGAGAAAGAUUAGUUACAAGAAGGUGCAAUUGAUU [JR_SSNG2_Sub034] (Eterna round: R96, puzzle: Same State NG 2)
[1]; input ligand: FMN 200 uM
  apparent KD of MS2 coat protein: 282 nM
[1]; [3]
  apparent KD of MS2 coat protein: 441 nM
[1]; input ligand: none
  apparent KD of MS2 coat protein: 311 nM

## GGAGCCGGCACCGAGGAUAUUCAUAUUAAAACAUGAGGAUCACCCAUGUAGGCCAGAAGGCUUUGGGAGAAGGCGGAUCGGCUCG [Xeonanis - 3] (Eterna round: R96, puzzle: Same State 2)
[1]; input ligand: FMN 200 uM
  apparent KD of MS2 coat protein: 22.1 nM
[1]; [3]
  apparent KD of MS2 coat protein: 148 nM
[1]; input ligand: none
  apparent KD of MS2 coat protein: 568 nM

## UUGCGGGCUUGAGGAUAUUGAGUACAUAUGUUUAACAUGAGGAUCACCCAUGUGGGUUGCGGUAUCGAGAAGGUGGCUUCCUGC [salish99_SSNG2_r04_813] (Eterna round: R96, puzzle: Same State NG 2)
[1]; input ligand: FMN 200 uM
  apparent KD of MS2 coat protein: 81.9 nM
[1]; [3]
  apparent KD of MS2 coat protein: 82.7 nM
[1]; input ligand: none
  apparent KD of MS2 coat protein: 74.8 nM

## GGCUAGGAUAUCUGCAGGAUCACCGCGGAGAAGGAGCUAAGCUAGGAUAUCCGCAGGAUCACCGCGGAGAAGGAGCAUAAUAUA [pwkr ssNG3 DX 2xF5 +2xFMN.15] (Eterna round: R96, puzzle: Same State NG 3)
[1]; input ligand: FMN 200 uM
  apparent KD of MS2 coat protein: 81.5 nM
[1]; [3]
  apparent KD of MS2 coat protein: 20.3 nM
[1]; input ligand: none
  apparent KD of MS2 coat protein: 18.1 nM

## ACAAGCUUUUUAGGAGAGAAAGGAGGGAAACAUGAGGAUCACCCAUGUAUGGUAGUGAAUAGAGGAACUCGUCUUAU [JR_SHM208A_Sub080] (puzzle: Sensor for hsa-mir-208a)
[1]; [4]
  apparent KD of MS2 coat protein: 90.5 nM
[1]; [5]
  apparent KD of MS2 coat protein: 25.6 nM
[1]; [6]
  apparent KD of MS2 coat protein: 152 nM

## CCGCUCCGUGGAGGAUAUGGGCCUGCCCGGGAUACCGAGCCUAACACAUGAGGAUCACCCAUGUCCCAGAAGGCCGCUGGAGCC [Inusaron] (Eterna round: R96, puzzle: Same State NG 2)
[1]; input ligand: FMN 200 uM
  apparent KD of MS2 coat protein: 30.7 nM
[1]; [3]
  apparent KD of MS2 coat protein: 52.8 nM
[1]; input ligand: none
  apparent KD of MS2 coat protein: 90.7 nM

## GAGCCAGUCCGAGGAUAUUCAUAUUAAAUACAUGAGGAUCACCCAUGUAGGCUCAGAGAGCCUUGGGAGAAGGCGGACUGGCUC [Xeonanisa>>1] (Eterna round: R96, puzzle: Same State NG 2)
[1]; input ligand: FMN 200 uM
  apparent KD of MS2 coat protein: 24.9 nM
[1]; [3]
  apparent KD of MS2 coat protein: 63.6 nM
[1]; input ligand: none
  apparent KD of MS2 coat protein: 113 nM

## GUGGUGAAUUAAGGAUAUCGAGUCAAGAUGUUAAACAUGAGGAUCACCCAUGUGGGUUGCGGUAUCGAGAAGGUAAUUUACGGG [salish99_SSNG2_r04_506] (Eterna round: R96, puzzle: Same State NG 2)
[1]; input ligand: FMN 200 uM
  apparent KD of MS2 coat protein: 17.3 nM
[1]; [3]
  apparent KD of MS2 coat protein: 20.1 nM
[1]; input ligand: none
  apparent KD of MS2 coat protein: 30.3 nM

## GUAGCAUACCGAGGAUAUUCAUAUACAUGAGGAUCACCCAUGUUUAUAUAGGCCAAAAGGCCUUGGGAGAAGGCGGAAUGCUAC [Xeonanis - 20 Mod10] (Eterna round: R96, puzzle: Same State NG 2)
[1]; input ligand: FMN 200 uM
  apparent KD of MS2 coat protein: 12.1 nM
[1]; [3]
  apparent KD of MS2 coat protein: 7.88 nM
[1]; input ligand: none
  apparent KD of MS2 coat protein: 13 nM

## UUAAUAAUGAUAGGAUAUACAUGAGGAAUUCUCGUAGAAGGAUCAUGACAUGAGGAUCACCCAUGUAACGCUCGGAAGAGCGUA [Mat - Same State NG 1 - JL mod - D38] (Eterna round: R96, puzzle: Same State NG 1)
[1]; input ligand: FMN 200 uM
  apparent KD of MS2 coat protein: 846 nM
[1]; [3]
  apparent KD of MS2 coat protein: 236 nM
[1]; input ligand: none
  apparent KD of MS2 coat protein: 909 nM

## ACGCAGCUGGGUGAGGAUAUCGGUGGUAAAACAUGAGGAUCACCCAUGUCCGAAGCUCGGACUUCCGAGAAGGCGCCCGGCUGCG [Soinraesar] (puzzle: Same State 2)
[1]; [4]
  apparent KD of MS2 coat protein: 11.4 nM
[1]; [5]
  apparent KD of MS2 coat protein: 104 nM
[1]; [6]
  apparent KD of MS2 coat protein: 103 nM

## AAACGACACACAGGAUAUCCGCCAUGCAGGCUCGGAGAAGGGUGUGAAACAUGAGGAUCACCCAUGUAGUCAAAAUAAUAAAGA [Arardixequ] (Eterna round: R96, puzzle: Same State NG 1)
[1]; input ligand: FMN 200 uM
  apparent KD of MS2 coat protein: 47 nM
[1]; [3]
  apparent KD of MS2 coat protein: 62.9 nM
[1]; input ligand: none
  apparent KD of MS2 coat protein: 58.9 nM

## UUGAAGAAUUAAGGAUAUCGAGUCGUCAGAUUUUACAUGAGGAUCACCCAUGUGGGUUGCGGUAUCGAGAAGGUAAAUUACAAG [JL JR Sub099 mod 6] (Eterna round: R96, puzzle: Same State NG 2)
[1]; input ligand: FMN 200 uM
  apparent KD of MS2 coat protein: 24.4 nM
[1]; [3]
  apparent KD of MS2 coat protein: 34.1 nM
[1]; input ligand: none
  apparent KD of MS2 coat protein: 43.3 nM

## GGUGCGAAUAAAGCCUACAUGAGGAUCACCCAUGUAUGUAGGCAGGAUAUCGUUUGCAAAGCAAACGAGAAGGGCUGUCGCACC [Mat - Same State NG 3 - JL Mod - D46] (Eterna round: R96, puzzle: Same State NG 3)
[1]; input ligand: FMN 200 uM
  apparent KD of MS2 coat protein: 29.9 nM
[1]; [3]
  apparent KD of MS2 coat protein: 55.2 nM
[1]; input ligand: none
  apparent KD of MS2 coat protein: 100 nM

## AUAAUAAUAAGUCAGGAUAUGUUGAUAAAGACAUGAGGAUCACCCAUGUGAAAUAAAAUAAUAAUACAGAAGGGACAAUAAUAAA [JMF's solution 3] (puzzle: Same State 2)
[1]; [4]
  apparent KD of MS2 coat protein: 252 nM
[1]; [5]
  apparent KD of MS2 coat protein: 64 nM
[1]; [6]
  apparent KD of MS2 coat protein: 265 nM

## ACAUAGGUUUCAGGAUAUGGGUAAAUUCCCUACAUGAGGAUCACCCAUGUCCGUAGGGAUAACAUCCAGAAGGGAAGCCACAUA [MOD3 Eternabot Solution 1 (Score 87.5)] (Eterna round: R96, puzzle: Same State NG 2)
[1]; input ligand: FMN 200 uM
  apparent KD of MS2 coat protein: 175 nM
[1]; [3]
  apparent KD of MS2 coat protein: 144 nM
[1]; input ligand: none
  apparent KD of MS2 coat protein: 221 nM

## AGUCCAGCCAGAGCUGGACAAAAGCAUGUACAUGAGGAUCACCCAUGUUCAUGUACAAGCUUUUUGCUCGUCUUAAU [Mat - hsa-mir-208a - Mod of JL - 59] (puzzle: Sensor for hsa-mir-208a)
[1]; [4]
  apparent KD of MS2 coat protein: 482 nM
[1]; [5]
  apparent KD of MS2 coat protein: 14.1 nM
[1]; [6]
  apparent KD of MS2 coat protein: 553 nM

## ACAUGAGGAUCACCCAUGUGCCGUCUUGAUACCAGACGCGAAGUAGUCCCUUGGCAGCAAAUACGUGAGGGUCGCGCAUGUGUAA [wzxmullin]
[2]; input ligand: arginine 13.2 mM
  apparent KD of MS2 coat protein: 21.8 nM
[2]; [7]
  apparent KD of MS2 coat protein: 27.3 nM
[2]; [8]
  apparent KD of MS2 coat protein: 24.9 nM

## AUUUUUCUAUCAGAUACCAGACAAUUUUAGACAUGAGGAUCACCCAUGUAUAGGGUGUUCGUCCCUUGGCAGCUGUUAAGUUUAA [JR_SSTheophyB_Sub004]
[2]; input ligand: arginine 13.2 mM
  apparent KD of MS2 coat protein: 62 nM
[2]; [7]
  apparent KD of MS2 coat protein: 152 nM
[2]; [8]
  apparent KD of MS2 coat protein: 182 nM

## AGCAUGUUAUCAGAUACCAGACAUCUUUUUUUACGUAUUACAUGAGGAUCACCCAUGUUGGUCCCUUGGCAGCUGAAAUAUUUCA [JR_Nu_SSTheophyB_Sub022]
[2]; input ligand: arginine 13.2 mM
  apparent KD of MS2 coat protein: 167 nM
[2]; [7]
  apparent KD of MS2 coat protein: 269 nM
[2]; [8]
  apparent KD of MS2 coat protein: 219 nM

## GGACUAACCAGAAGGAGCGGCACAAAGCAGAAACUGCAUCCUCCGCACGAGGAUCACCCGUGUCAGGUAGGUCGCUGGUUAGUCG [ArgBX 28]
[2]; input ligand: arginine 13.2 mM
  apparent KD of MS2 coat protein: 46.2 nM
[2]; input ligand: none
  apparent KD of MS2 coat protein: 57.5 nM
[2]; [7]
  apparent KD of MS2 coat protein: 70.6 nM
[2]; input ligand: theophylline 2 mM
  apparent KD of MS2 coat protein: 69.5 nM
[2]; [8]
  apparent KD of MS2 coat protein: 62 nM
